B1: Spastin (Homo sapiens), Q9UBP0-1 (parent)
chain: MNSPGGRGKKKGSGGASNPVPPRPPPPCLAPAPPAAGPAPPPESPHKRNLYYFSYPLFVGFALLRLVAFHLGLLFVWLCQRFSRALMAAKRSSGAAPAPASASAPAPVPGGEAERVRVFHKQAFEYISIALRIDEDEKAGQKEQAVEWYKKGIEELEKGIAVIVTGQGEQCERARRLQAKMMTNLVMAKDRLQLLEKMQPVLPFSKSQTDVYNDSTNLACRNGHLQSESGAVPKRKDPLTHTSNSLPRSKTVMKTGSAGLSGHHRAPSYSGLSMVSGVKQGSGPAPTTHKGTPKTNRTNKPSTPTTATRKKKDLKNFRNVDSNLANLIMNEIVDNGTAVKFDDIAGQDLAKQALQEIVILPSLRPELFTGLRAPARGLLLFGPPGNGKTMLAKAVAAESNATFFNISAASLTSKYVGEGEKLVRALFAVARELQPSIIFIDEVDSLLCERREGEHDASRRLKTEFLIEFDGVQSAGDDRVLVMGATNRPQELDEAVLRRFIKRVYVSLPNEETRLLLLKNLLCKQGSPLTQKELAQLARMTDGYSGSDLTALAKDAALGPIRELKPEQVKNMSASEMRNIRLSDFTESLKKIKRSVSPQTLEAYIRWNKDFGDTTV

Variants of: B1
Conditions: with fxl17_human FBXL17, Q9UF56
Chain of fxl17_human FBXL17, Q9UF56 (Q9UF56 whole entry): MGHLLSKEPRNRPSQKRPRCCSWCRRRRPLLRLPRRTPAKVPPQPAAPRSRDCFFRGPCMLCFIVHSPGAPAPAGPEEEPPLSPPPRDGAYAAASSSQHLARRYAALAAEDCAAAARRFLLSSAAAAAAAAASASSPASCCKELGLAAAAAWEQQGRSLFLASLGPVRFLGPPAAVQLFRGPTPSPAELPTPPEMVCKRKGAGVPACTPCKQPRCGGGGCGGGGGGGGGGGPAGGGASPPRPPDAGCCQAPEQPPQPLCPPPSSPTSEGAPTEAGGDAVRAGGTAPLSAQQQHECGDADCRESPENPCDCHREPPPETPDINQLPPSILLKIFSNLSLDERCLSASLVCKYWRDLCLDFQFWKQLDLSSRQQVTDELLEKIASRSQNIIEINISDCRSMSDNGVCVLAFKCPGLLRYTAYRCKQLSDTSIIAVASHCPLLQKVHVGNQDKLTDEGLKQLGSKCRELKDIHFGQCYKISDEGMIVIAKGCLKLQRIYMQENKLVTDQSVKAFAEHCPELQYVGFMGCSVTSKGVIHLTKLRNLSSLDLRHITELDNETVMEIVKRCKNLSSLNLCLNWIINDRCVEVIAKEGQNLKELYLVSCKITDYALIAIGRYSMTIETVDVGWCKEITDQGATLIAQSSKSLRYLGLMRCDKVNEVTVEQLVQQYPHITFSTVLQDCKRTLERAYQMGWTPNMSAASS
Y52C was tested, and the “effect of a mutation on the interaction” value was “disrupting interaction strength”.
